Holding throughout (assay): SPR; human
For orientation: Surface plasmon resonance follows binding to a sensor surface in real time, without labels.

One experiment has as its target T1, human FcγRIIB (human, UniProt P31994 43-217).
T1 chain: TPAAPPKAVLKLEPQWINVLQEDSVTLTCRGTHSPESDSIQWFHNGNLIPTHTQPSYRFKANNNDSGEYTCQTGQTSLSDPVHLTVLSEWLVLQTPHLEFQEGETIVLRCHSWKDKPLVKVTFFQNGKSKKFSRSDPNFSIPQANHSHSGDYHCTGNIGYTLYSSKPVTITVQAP

Another experiment concerns the target Afucosylated.
The target of another experiment is SDIE.

As a reminder, the Kd is the free concentration of one partner at which half of the binding sites on the other are occupied at equilibrium, for simple one-to-one binding.

B1: GAALIE (protein)
chain: ASTKGPSVFPLAPSSKSTSGGTAALGCLVKDYFPEPVTVSWNSGALTSGVHTFPAVLQSSGLYSLSSVVTVPSSSLGTQTYICNVNHKPSNTKVDKRVEPKSCDKTHTCPPCPAPELLAGPSVFLFPPKPKDTLMISRTPEVTCVVVDVSHEDPEVKFNWYVDGVEVHNAKTKPREEQYNSTYRVVSVLTVLHQDWLNGKEYKCKVSNKALPLPEEKTISKAKGQPREPQVYTLPPSREEMTKNQVSLTCLVKGFYPSDIAVEWESNGQPENNYKTTPPVLDSDGSFFLYSKLTVDKSRWQQGNVFSCSVMHEALHNHYTQKSLSLSPGK
B1 had a Kd in the experiment with human FcγRIIB of 19.6 µM.

B2: FcγRIIb (receptor)
chain: T1 chain
Turning to B2, the Kd in the experiment with Afucosylated is 5.88 µM; in the experiment with SDIE, 0.665 µM.
